Source: patent publication US20230340429A1, “STEVIOL GLYCOSIDE HEXOSE TRANSFERASE AND GENE CODING FOR SAME” (SUNTORY HOLDINGS LIMITED, priority 2016, published 2023)
Substitutions are numbered along the chain they refer to.

Key:
[1] = in vitro rhamnosylation activity (RhaT) of Escherichia coli-expressed UGT protein with UDP-rhamnose; assay type: biochemical; conditions: recombinant protein, LC-MS
Method: (§1) The standard enzymatic reaction conditions are as follows. A reaction solution (2 mM UDP-glucose, 0.1 mM sugar receptor substrate, 100 mM potassium phosphate buffer (pH 7.5), 25 μl of purified enzyme solution) was prepared to 50 μl with distilled water and incubated at 30° C. for 1 hour to react. The LC-MS analysis of 5 μl of the enzymatic reaction solution was carried out under the following conditions.
(§2) • Column: Imtakt SM-C18 3.0 um 4.6 mm I.D.×250 mm • Mobile phase: A: MilliQ Water (+0.2% acetic acid), • B: Methanol • Gradient: 0 to 5 min (B conc 10% constant), 5 to 20 min (B conc 10%→70%), 20 to 25 min (B conc 70%→100%), 25 to 35 min (B conc 100% constant), 35 to 36 min (B conc 100%→10%), 45 min end of analysis • Flow rate: 0.4 mL/min • Column oven: 40° C.
(§3) Evaluation of Mutants 1 and 2 was then made using the protein expressed in Escherichia coli in the same manner as in Example 4. The glucosylation activity (GlcT) and the rhamnosylation activity (RhaT) were evaluated using UDP-glucose and UDP-rhamnose, respectively, as the sugar donor and using rubusoside as the substrate, which is a sugar receptor. Stevioside and dulcoside A were produced as the reaction products in the former and in the latter, respectively.

[2] = tested on: Saccharomyces cerevisiae strain YPH499; assay: Production of Reb.C from steviol in yeast coexpressing UGTs and AtRHM2; assay type: cell-based; conditions: yeast coexpressing UGT85C2, UGT74G1, UGT76G1 and AtRHM2; 0.5 μg or 2 μg of steviol per 1 ml; HPLC, LC-MS
From the text: [Example 5] RebC synthesis by fermentative production using yeast Various steviol glycosides were produced from steviol in yeast. First, yeast that simultaneously expresses the 4 glycosylation enzyme genes UGT85C2 (SEQ ID NO: 7), UGT91D2 (SEQ ID NO: 3), UGT74G1 (SEQ ID NO: 9), and UGT76G1 (SEQ ID NO: 11) or the 4 genes UGT85C2, UGT91D2L #16, UGT74G1, and UGT76G1 from Stevia rebaudiana and the UDP-rhamnose synthase gene AtRHM2 (SEQ ID NO: 13) from Arabidopsis thaliana has been created.
The plasmids set forth in Table 1 were introduced into the Saccharomyces cerevisiae strain YPH499 (ura3-52 lys2-801^amber ade2-101^ochre trp1-Δ63 his3-Δ200 leu2-Δ1 a) as a host by the lithium acetate method. Those that grew on SC-Trp&Ura&His agar medium (6.7 g of Yeast nitrogen base without amino acids, 20 g of glucose, 1.3 g of amino acid mixture powder Trp&Ura&His, 20 g of Bacto agar, per 1 L) were selected as transformant strains.
First, 10 ml of SC-Trp&Ura&His liquid medium (SC-Trp&Ura&His agar medium without Bacto agar) was inoculated each transformant strain as a preculture and cultured with shaking at 30° C. for 1 day. […]
The obtained glycoside sample was analyzed with high performance liquid chromatography (HPLC). […]

[3] = in vitro glucosylation activity (GlcT) of Escherichia coli-expressed UGT protein with UDP-glucose; assay type: biochemical; conditions: recombinant protein, 30° C. 1 hour, LC-MS
Method: as §1, §2, §3

B1: UGT91D2: known Stevia rebaudiana UDP sugar-dependent glycosyltransferase, amino acid sequence SEQ ID NO: 4 (protein, listed as Stevia rebaudiana)
chain: MYNVTYHQNSKAMATSDSIVDDRKQLHVATFPWLAFGHILPYLQLSKLIAEKGHKVSFLSTTRNIQRLSSHISPLINVVQLTLPRVQELPEDAEATTDVHPEDIPYLKKASDGLQPEVTRFLEQHSPDWIIYDYTHYWLPSIAASLGISRAHFSVTTPWAIAYMGPSADAMINGSDGRTTVEDLTTPPKWFPFPTKVCWRKHDLARLVPYKAPGISDGYRMGLVLKGSDCLLSKCYHEFGTQWLPLLETLHQVPVVPVGLLPPEIPGDEKDETWVSIKKWLDGKQKGSVVYVALGSEVLVSQTEVVELALGLELSGLPFVWAYRKPKGPAKSDSVELPDGFVERTRDRGLVWTSWAPQLRILSHESVCGFLTHCGSGSIVEGLMFGHPLIMLPIFGDQPLNARLLEDKQVGIEIPRNEEDGCLTKESVARSLRSVVVEKEGEIYKANARELSKIYNDTKVEKEYVSQFVDYLEKNARAVAIDHES
activity to rhamnosylate rubusoside to produce dulcoside A [1]: production of dulcoside A
amount of Reb.C produced [2]: Reb.C was produced
activity to glucosylate rubusoside to produce stevioside [3]: production of stevioside

B2: UGT91D2L #16: novel Stevia rebaudiana UGT highly homologous with UGT91D2, amino acid sequence SEQ ID NO: 2 (protein, listed as Stevia rebaudiana)
chain: B1 chain with Y42F, T156V, S233F, V298A, I394L, K439N, Y471F
activity to rhamnosylate rubusoside to produce dulcoside A [1]: markedly higher than SrUGT91D2
amount of Reb.C produced [2]: higher than that in the strain A-5678 expressing UGT91D2
activity to glucosylate rubusoside to produce stevioside [3]: weaker than SrUGT91D2
